# Target: Fyn (UniProt P06241)
# Assay: phosphorylation enrichment, bacterial display (enrichment ratio); higher = better substrate or ligand; peptides without Tyr show the background
# 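Further: 11-residue human phosphosite peptides and single-mutation variants displayed on the E. coli surface, counted by deep sequencing, each peptide's frequency after selection divided by its frequency in the unselected input library; frequency after pTyr selection over input frequency; kinase dosed for 20-30% of maximal phosphorylation in three min.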
# Chain of Fyn (P06241 whole entry, looked up): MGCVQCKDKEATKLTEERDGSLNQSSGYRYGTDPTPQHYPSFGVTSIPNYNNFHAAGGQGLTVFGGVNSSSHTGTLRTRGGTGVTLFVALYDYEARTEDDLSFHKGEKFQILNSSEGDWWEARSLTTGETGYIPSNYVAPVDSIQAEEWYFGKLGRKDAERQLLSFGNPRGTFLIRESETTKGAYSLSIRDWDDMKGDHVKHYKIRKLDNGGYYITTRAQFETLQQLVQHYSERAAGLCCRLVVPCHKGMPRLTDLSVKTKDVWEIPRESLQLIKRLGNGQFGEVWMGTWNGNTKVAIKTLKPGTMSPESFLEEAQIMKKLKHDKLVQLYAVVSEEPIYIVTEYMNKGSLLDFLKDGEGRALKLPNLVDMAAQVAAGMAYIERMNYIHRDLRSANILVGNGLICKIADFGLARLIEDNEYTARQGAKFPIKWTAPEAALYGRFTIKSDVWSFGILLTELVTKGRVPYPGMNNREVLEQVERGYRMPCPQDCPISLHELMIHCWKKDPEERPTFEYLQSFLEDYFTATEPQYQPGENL
row,Sequence,phosphorylation enrichment
1,SQQTFYRVSNM [ABCD1_Y181_YF],0.409
2,VRKRSYSAGNA [KANK1_Y324],0.441
3,KRRGPYETSPS [PLPP7_Y172],0.491
4,KSLFHHRQFSA [CPS1_Y1491_Y1491H_YF],0.403
5,QQLVAYFSKHA [SRC_Y232_YF],0.53
6,QNTGHYSSENT [TMEFF2_Y361_D364E],0.903
7,SLLTDDSPQLQ [OTC_Y345_Y345D],0.407
8,ESDYPYSSSYE [SRPK2_Y427_T426P],0.593
9,CQGSLYPSNHD [LRIG1_Y996],0.535
10,STEVIYLPRRK [STK11_Y36_Q37L],0.7
11,IEDPFYGNDFD [ACP1_Y133_S137F_YF],0.566
12,GVLDIYGFDIL [MYO1A_Y382_E385D],3.78
13,FNNFGYGNDGF [HNRNPH3_Y161_YF],0.505
14,LSSEMYVKSFT [F5_Y2149_YF],0.647
15,NNRVFYDNSDR [RS1_Y177_G178D],0.45
16,AGEGSYALDSE [PES1_Y265_T264S],0.946
17,TFGVVYRAKDK [CDK11B_Y453_YF],0.563
18,EREFKYGAHNH [OAT_Y50_Y55H_YF],0.307
19,RFLRGYEQDAF [HLA-A_Y137_R138E_YF],0.636
20,EKLQKYYRQNP [EHHADH_Y682],0.391
21,QRIYQYIQSRF [DYRK1B_Y273],1.68
22,RMSRSYPTGLA [ADM_Y52_S50R],0.381
23,RTVDVYFGPRM [KIRREL3_Y332],1.06
24,KVALPYKPYFY [POLE_Y100],0.465
25,NFPGGYSGSVK [MCPH1_Y606_L602F],0.44
26,HYMELYDLNRD [BBS2_Y648_R643H],2.58
27,GGFTCYSDGKK [PROS1_Y266_C267S_YF],0.55
28,LRRQDYQEILD [SLC35G2_Y403_K400R],0.492
29,KNEIFYQCPDQ [FBXO3_Y223_V221I],0.748

# Target: Hck (UniProt P08631)
# Sequence (P08631 whole entry, looked up): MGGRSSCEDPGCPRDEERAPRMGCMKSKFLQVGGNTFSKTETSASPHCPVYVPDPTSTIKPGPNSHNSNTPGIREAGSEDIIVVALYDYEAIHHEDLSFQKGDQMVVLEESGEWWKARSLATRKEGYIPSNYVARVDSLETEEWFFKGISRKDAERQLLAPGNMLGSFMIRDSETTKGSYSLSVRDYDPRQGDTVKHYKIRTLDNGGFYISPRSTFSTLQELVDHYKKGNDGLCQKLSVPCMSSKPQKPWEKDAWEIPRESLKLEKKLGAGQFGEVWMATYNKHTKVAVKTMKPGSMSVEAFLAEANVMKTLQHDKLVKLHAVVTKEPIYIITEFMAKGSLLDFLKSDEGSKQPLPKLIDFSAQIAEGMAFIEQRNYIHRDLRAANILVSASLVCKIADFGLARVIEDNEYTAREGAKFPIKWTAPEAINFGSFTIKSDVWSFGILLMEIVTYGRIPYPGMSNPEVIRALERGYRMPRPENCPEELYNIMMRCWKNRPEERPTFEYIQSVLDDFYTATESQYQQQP
# Assay: as above
row,Sequence,phosphorylation enrichment
1,SQQTFYRVSNM [ABCD1_Y181_YF],0.513
2,VRKRSYSAGNA [KANK1_Y324],0.48
3,KRRGPYETSPS [PLPP7_Y172],0.399
4,KSLFHHRQFSA [CPS1_Y1491_Y1491H_YF],0.297
5,QQLVAYFSKHA [SRC_Y232_YF],0.652
6,QNTGHYSSENT [TMEFF2_Y361_D364E],0.468
7,SLLTDDSPQLQ [OTC_Y345_Y345D],0.481
8,ESDYPYSSSYE [SRPK2_Y427_T426P],0.581
9,CQGSLYPSNHD [LRIG1_Y996],0.611
10,STEVIYLPRRK [STK11_Y36_Q37L],0.515
11,IEDPFYGNDFD [ACP1_Y133_S137F_YF],0.595
12,GVLDIYGFDIL [MYO1A_Y382_E385D],2.12
13,FNNFGYGNDGF [HNRNPH3_Y161_YF],0.447
14,LSSEMYVKSFT [F5_Y2149_YF],0.933
15,NNRVFYDNSDR [RS1_Y177_G178D],0.4
16,AGEGSYALDSE [PES1_Y265_T264S],0.747
17,TFGVVYRAKDK [CDK11B_Y453_YF],0.481
18,EREFKYGAHNH [OAT_Y50_Y55H_YF],0.29
19,RFLRGYEQDAF [HLA-A_Y137_R138E_YF],0.629
20,EKLQKYYRQNP [EHHADH_Y682],0.408
21,QRIYQYIQSRF [DYRK1B_Y273],3.87
22,RMSRSYPTGLA [ADM_Y52_S50R],0.39
23,RTVDVYFGPRM [KIRREL3_Y332],1.5
24,KVALPYKPYFY [POLE_Y100],0.485
25,NFPGGYSGSVK [MCPH1_Y606_L602F],0.406
26,HYMELYDLNRD [BBS2_Y648_R643H],2.89
27,GGFTCYSDGKK [PROS1_Y266_C267S_YF],0.55
28,LRRQDYQEILD [SLC35G2_Y403_K400R],0.352
29,KNEIFYQCPDQ [FBXO3_Y223_V221I],0.998

# Target: FGFR1 (UniProt P11362)
# Sequence (P11362 whole entry, looked up): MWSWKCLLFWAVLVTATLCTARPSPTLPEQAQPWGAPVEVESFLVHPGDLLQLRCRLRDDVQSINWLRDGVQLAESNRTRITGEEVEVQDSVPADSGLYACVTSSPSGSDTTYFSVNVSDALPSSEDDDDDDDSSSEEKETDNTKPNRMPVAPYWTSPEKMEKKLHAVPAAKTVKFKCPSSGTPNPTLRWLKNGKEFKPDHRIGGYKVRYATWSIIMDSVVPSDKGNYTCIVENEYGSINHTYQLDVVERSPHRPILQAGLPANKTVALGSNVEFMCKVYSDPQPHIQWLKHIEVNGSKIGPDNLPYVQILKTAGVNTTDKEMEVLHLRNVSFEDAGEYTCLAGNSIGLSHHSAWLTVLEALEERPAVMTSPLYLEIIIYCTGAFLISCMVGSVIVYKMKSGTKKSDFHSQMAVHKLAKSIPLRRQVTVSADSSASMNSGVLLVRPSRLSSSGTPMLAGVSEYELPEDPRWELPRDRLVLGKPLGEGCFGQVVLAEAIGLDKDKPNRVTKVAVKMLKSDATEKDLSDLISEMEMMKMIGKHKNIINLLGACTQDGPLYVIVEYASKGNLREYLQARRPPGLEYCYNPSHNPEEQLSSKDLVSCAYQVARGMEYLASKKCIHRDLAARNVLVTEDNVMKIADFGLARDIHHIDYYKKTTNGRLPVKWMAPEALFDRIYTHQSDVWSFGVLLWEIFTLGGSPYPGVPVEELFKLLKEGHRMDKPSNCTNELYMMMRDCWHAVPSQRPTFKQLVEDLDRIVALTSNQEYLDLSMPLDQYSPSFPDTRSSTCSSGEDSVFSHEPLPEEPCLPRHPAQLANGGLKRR
# Assay: as above
row,Sequence,phosphorylation enrichment
1,SQQTFYRVSNM [ABCD1_Y181_YF],0.433
2,VRKRSYSAGNA [KANK1_Y324],0.396
3,KRRGPYETSPS [PLPP7_Y172],0.414
4,KSLFHHRQFSA [CPS1_Y1491_Y1491H_YF],0.353
5,QQLVAYFSKHA [SRC_Y232_YF],0.621
6,QNTGHYSSENT [TMEFF2_Y361_D364E],0.828
7,SLLTDDSPQLQ [OTC_Y345_Y345D],0.491
8,ESDYPYSSSYE [SRPK2_Y427_T426P],0.668
9,CQGSLYPSNHD [LRIG1_Y996],0.531
10,STEVIYLPRRK [STK11_Y36_Q37L],0.52
11,IEDPFYGNDFD [ACP1_Y133_S137F_YF],0.548
12,GVLDIYGFDIL [MYO1A_Y382_E385D],0.448
13,FNNFGYGNDGF [HNRNPH3_Y161_YF],0.546
14,LSSEMYVKSFT [F5_Y2149_YF],1.15
15,NNRVFYDNSDR [RS1_Y177_G178D],0.435
16,AGEGSYALDSE [PES1_Y265_T264S],0.644
17,TFGVVYRAKDK [CDK11B_Y453_YF],0.333
18,EREFKYGAHNH [OAT_Y50_Y55H_YF],0.336
19,RFLRGYEQDAF [HLA-A_Y137_R138E_YF],0.466
20,EKLQKYYRQNP [EHHADH_Y682],0.509
21,QRIYQYIQSRF [DYRK1B_Y273],1.25
22,RMSRSYPTGLA [ADM_Y52_S50R],0.36
23,RTVDVYFGPRM [KIRREL3_Y332],0.758
24,KVALPYKPYFY [POLE_Y100],0.47
25,NFPGGYSGSVK [MCPH1_Y606_L602F],0.486
26,HYMELYDLNRD [BBS2_Y648_R643H],3.57
27,GGFTCYSDGKK [PROS1_Y266_C267S_YF],0.555
28,LRRQDYQEILD [SLC35G2_Y403_K400R],0.727
29,KNEIFYQCPDQ [FBXO3_Y223_V221I],0.928

# Tested on: Fer (mouse)
# Assay: as above
row,Sequence,phosphorylation enrichment
1,SQQTFYRVSNM [ABCD1_Y181_YF],0.39
2,VRKRSYSAGNA [KANK1_Y324],0.457
3,KRRGPYETSPS [PLPP7_Y172],0.446
4,KSLFHHRQFSA [CPS1_Y1491_Y1491H_YF],0.297
5,QQLVAYFSKHA [SRC_Y232_YF],0.48
6,QNTGHYSSENT [TMEFF2_Y361_D364E],0.868
7,SLLTDDSPQLQ [OTC_Y345_Y345D],0.444
8,ESDYPYSSSYE [SRPK2_Y427_T426P],0.499
9,CQGSLYPSNHD [LRIG1_Y996],0.501
10,STEVIYLPRRK [STK11_Y36_Q37L],0.526
11,IEDPFYGNDFD [ACP1_Y133_S137F_YF],0.509
12,GVLDIYGFDIL [MYO1A_Y382_E385D],0.524
13,FNNFGYGNDGF [HNRNPH3_Y161_YF],0.499
14,LSSEMYVKSFT [F5_Y2149_YF],0.837
15,NNRVFYDNSDR [RS1_Y177_G178D],0.471
16,AGEGSYALDSE [PES1_Y265_T264S],0.608
17,TFGVVYRAKDK [CDK11B_Y453_YF],0.372
18,EREFKYGAHNH [OAT_Y50_Y55H_YF],0.441
19,RFLRGYEQDAF [HLA-A_Y137_R138E_YF],0.51
20,EKLQKYYRQNP [EHHADH_Y682],0.367
21,QRIYQYIQSRF [DYRK1B_Y273],5.21
22,RMSRSYPTGLA [ADM_Y52_S50R],0.319
23,RTVDVYFGPRM [KIRREL3_Y332],0.711
24,KVALPYKPYFY [POLE_Y100],0.346
25,NFPGGYSGSVK [MCPH1_Y606_L602F],0.368
26,HYMELYDLNRD [BBS2_Y648_R643H],1.28
27,GGFTCYSDGKK [PROS1_Y266_C267S_YF],0.654
28,LRRQDYQEILD [SLC35G2_Y403_K400R],0.509
29,KNEIFYQCPDQ [FBXO3_Y223_V221I],4.5

# — the supplement of paper PMC10065799, “High-throughput profiling of sequence recognition by tyrosine kinases and SH2 domains using bacterial peptide display” (eLife, 2023)
